From patent US20100137221A1, “PEPTIDES THAT INTERACT WITH TOPOISOMERASE I AND METHODS THEREOF” (UNIVERSITY UTAH RESEARCH FOUNDATION, priority 2007, published 2010)
Entries after “also recorded” stand apart in the source; their conditions may differ. Read-outs that look alike come from different tables or passages of the source. No end group written: not given here.

Experiments:
top1 [1] = biological target: T1, top1 (Homo sapiens, UniProt P11387); experiment: DNA cleavage complex assay with 9AC; assay type: biochemical; parameters: made in house; host or cells: Sf9 insect cells (baculovirus) or human placenta
T1 sequence (P11387 1-765): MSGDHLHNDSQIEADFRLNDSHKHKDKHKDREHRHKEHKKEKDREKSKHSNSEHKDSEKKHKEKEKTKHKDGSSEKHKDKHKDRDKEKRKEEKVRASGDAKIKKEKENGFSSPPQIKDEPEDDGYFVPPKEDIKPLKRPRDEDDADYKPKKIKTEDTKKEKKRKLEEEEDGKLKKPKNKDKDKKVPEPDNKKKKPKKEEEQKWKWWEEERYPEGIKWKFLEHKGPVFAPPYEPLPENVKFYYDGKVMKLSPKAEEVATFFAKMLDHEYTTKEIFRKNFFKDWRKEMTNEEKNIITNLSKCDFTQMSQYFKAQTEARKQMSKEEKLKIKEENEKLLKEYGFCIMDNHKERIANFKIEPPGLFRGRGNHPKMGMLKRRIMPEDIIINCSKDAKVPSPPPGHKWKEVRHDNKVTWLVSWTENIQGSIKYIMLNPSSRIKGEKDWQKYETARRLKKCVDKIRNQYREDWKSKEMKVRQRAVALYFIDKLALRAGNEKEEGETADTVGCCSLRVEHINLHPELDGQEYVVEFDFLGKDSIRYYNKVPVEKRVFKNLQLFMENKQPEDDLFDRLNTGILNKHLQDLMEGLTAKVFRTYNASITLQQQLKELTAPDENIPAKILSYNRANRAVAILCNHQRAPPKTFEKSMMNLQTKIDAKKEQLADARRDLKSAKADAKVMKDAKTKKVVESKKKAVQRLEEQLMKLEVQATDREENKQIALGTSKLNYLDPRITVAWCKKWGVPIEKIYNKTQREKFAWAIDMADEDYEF
Procedure: Top1 relaxation/cleavage activity assays: Peptides were assayed for their ability to interfere with or enhance relaxation of supercoiled DNA mediated by 100 kDa top1. The top1 and pBR322 were combined in a top1-reaction buffer (150 mM KCl, 12 mM MgCl2, 2 mM EDTA, 50 mM Tris HCl pH 7.5) at 37° C. for 30 minutes with 1 μM peptide. The 20 μl reactions were stopped with 1.0 μl of 1% SDS. Digestion of protein was performed by addition of 1.0 μg proteinase K for 30 minutes at 37° C., loaded with 5 μl of a standard 5×bromphenol blue/glycerol loading buffer and run in an 0.8% agarose gel in TAE (0.04 M Tris-acetate and 1.0 mM EDTA). […] The reactions were incubated for 30 minutes at 30° C. and then treated with 1 μl of 1 mg/ml proteinase K in 0.05% SDS for an additional 30 minutes at 37° C. to transform the 9AC-top1-DNA complexes into nicked DNA. This was followed by electrophoresis in an 0.8% agarose-TAE gel containing ethidium bromide. A control set of experiments and log serial dilutions of peptide were examined for each peptide. Percent cleavage was determined by liquid scintillation counting of excised bands using the method described by Marshall et al. (Marshall 2003).

100 kDa top1 = biological target: T2, 100 kDa top1 (Homo sapiens, UniProt P11387); experiment: top1-mediated DNA relaxation assay (supercoiled pBR322); assay type: biochemical; details: 1 μM peptide
T2 construct: made in house; host or cells: Sf9 insect cells (baculovirus) or human placenta
T2 sequence (P11387 1-765): T1 sequence (P11387 1-765)
Procedure: Top1 relaxation/cleavage activity assays: Peptides were assayed for their ability to interfere with or enhance relaxation of supercoiled DNA mediated by 100 kDa top1. The top1 and pBR322 were combined in a top1-reaction buffer (150 mM KCl, 12 mM MgCl2, 2 mM EDTA, 50 mM Tris HCl pH 7.5) at 37° C. for 30 minutes with 1 μM peptide. The 20 μl reactions were stopped with 1.0 μl of 1% SDS. Digestion of protein was performed by addition of 1.0 μg proteinase K for 30 minutes at 37° C., loaded with 5 μl of a standard 5×bromphenol blue/glycerol loading buffer and run in an 0.8% agarose gel in TAE (0.04 M Tris-acetate and 1.0 mM EDTA). DNA cleavage assays were performed in 20 μl volumes of reaction buffer (50 mM Tris-HCl (pH 7.5), 100 mM KCl, 10 mM MgCl2 0.5 mM EDTA, 0.2 mg/ml BSA), 500 ng of radiaolabeled (^3H thymidine) supercoiled rf (replicative form) M13 mp 19 DNA and 112 ng of top1. The reactions were incubated for 30 minutes at 30° C. and then treated with 1 μl of 1 mg/ml proteinase K in 0.05% SDS for an additional 30 minutes at 37° C. to transform the 9AC-top1-DNA complexes into nicked DNA. This was followed by electrophoresis in an 0.8% agarose-TAE gel containing ethidium bromide. […] Percent cleavage was determined by liquid scintillation counting of excised bands using the method described by Marshall et al. (Marshall 2003).

top1 [2] = biological target: T1, top1; details: surface plasmon resonance
top1 [3] = biological target: T1, top1; experiment: Biosensor binding specificity, top1 versus topoisomerase II and tubulin over T1BP2 surface; parameters: made in house; host or cells: Sf9 insect cells (baculovirus) or human placenta; details: 8.0 nM of each protein injected over T1BP2 channel
Procedure: (§1) These top1 experiments were evaluated with BIAevaluation Software 3.1 using Langmuir Kinetics to model the interaction. The accuracy of the fit to the model is illustrated by dashed lines representing actual data and narrow lines representing the fitted curves.

T1BP2 = biological target: T3, T1BP2
T3 chain: SAYAATVRGPLSSAS

human topoisomerase I [4] = biological target: T4, human topoisomerase I (human, UniProt P11387 1-765, limits assumed); experiment: phage display biopanning against top1-DNA-9AC, analytical titering against top1
T4 construct: also called top1; top 1
T4 sequence (looked up): T1 sequence (P11387 1-765)
Procedure: Phage display: Phage display was performed as described by Smith (Parmley 1989). Briefly, top1 was first biotinylated with a biotin derivative containing a spacer engineered to reduced steric interference (Pierce EZ-Link Biotin-PEO-Amine). The reaction was performed at a 5:1 molar ratio of biotin:top1 in 10 mM HEPES (pH 8.2) buffered 500 mM NaCl. The unreacted biotin was removed by gel filtration in a Biospin 30 column (BioRad) and biotinylated top1 was assayed for activity using a pull down method with streptavidin coated beads. The biotinylated top1 maintained catalytic activity. For phage display, 20 μg biotinylated top1 was reacted with a mixture of pBR322 and 9AC and 20 μg was applied to a 30 mm plastic petri dish coated with 10 μg of neutravidin (Pierce). The dish was then blocked with 3.0% bovine serum albumin, and 10 μl of a 10⁹/μl titer phage library in 100 μl TBS-0.05% Tween was added. Phage were allowed to associate with gentle rocking for 2 hours at 4° C., and then washed repeatedly over 2 hours at 4° C. with buffered saline containing 0.1% Tween. […]
Analytical titering: Ten μl of amplified phage clones (approximately 10¹² cfu) were incubated in 50 nM top1 for one hour at 4° C. on a rocker. […] Competent E. coli were added directly to the washed plates and the output assessed by counting a 10⁻⁶ dilution of the culture on tetracycline plates (FIG. 1). […]

human topoisomerase I [5] = biological target: T4, human topoisomerase I; experiment: SPR (BIAcore), 100 kDa top1 applied at 1, 2.5, 5, 10 and 20 nM to the CPP1 flow cell, global fit [left panel]
Procedure: (§2) Top 1 was applied to flow cells in 1, 2.5, 5, 10 and 20 nM concentrations. The overlaying curves represent the actual data for a given concentration of top 1 and the “fit” curves. Data were fit using the BIAeval 3000 global fitting software.

human topoisomerase I [6] = biological target: T4, human topoisomerase I; experiment: SPR (BIAcore), T1BP2 on the chip, top1 as analyte, Langmuir model [cont'd) B]
Procedure: as §1
(§3) Binding analysis: The binding analysis of the peptides was performed on a BIAcore 2000 instrument. A four channel CM5 sensor chip was derivatized with three top1 binding peptides (T1BPs 1, 2 and 4) and a control surface left blank. Catalytically active top1 was used as the mobile or analyte phase and diluted in 150 mM NaCl, 30 mM HEPES, 0.05% P20 and injected at various concentrations (8.0, 4.0, 2.0, 1.0 and 0.4 nM) through the instrument's microfluidics sample handling system at a flow rate of 30 μl/minute. With each injection of a particular concentration of top1, association and dissociation data for three peptides were generated. Binding constants were determined using the BIAevaluation 2.1 software.

human topoisomerase I [7] = biological target: T4, human topoisomerase I; experiment: SPR (BIAcore 2000), T1BP2 on CM5 chip, top1 as analyte, Langmuir model
Procedure: as §3
T1BP2 affinity for top1: T1BP2 had remarkable affinity for top1 when assayed by surface plasmon resonance (FIG. 2a).

human topoisomerase I [8] = biological target: T4, human topoisomerase I; experiment: fluorescence polarization, human placental 91 kDa top1 titrated into 500 nM fluorescein-labeled T1BP1; the concentration is that of top1
human topoisomerase I [9] = biological target: T4, human topoisomerase I; experiment: SPR (BIAcore), 100 kDa top1 applied at 1, 2.5, 5, 10 and 20 nM to the CPP4 flow cell, global fit [right panel]
Procedure: as §2

“SAYAATVRGPLSSAS [T1BP2, SAYAATVRGPLSSAS]” was tested, and the “effect on cleavage (in words)” value (top1 [1]; 0.45 μM 9AC, 20 ng top1) was “increase in cleavage at all but one concentration”, the “increase in cleavage complex formation” value (top1 [1]; 0.45 μM and 0.9 μM 9AC, through the range of peptide concentrations tested) was “approximately 50%” and the “effect on top1-mediated DNA relaxation” value (100 kDa top1) was “slight ability to inhibit top1-mediated relaxation; also recorded: Inhibition of top1 relaxation (slight increase in supercoiled DNA remaining)”. The “affinity for top1 (in words)” value (top1 [2]) was “high nanomolar affinity”, the “affinity for top1 (in words)” value (top1 [2]; listed as T1PB2) was “mid-nanomolar affinity” and the “binding specificity for top1 verses topoisomerase II and tubulin” value (top1 [3]) was “specificity for top1”.

B1: human topoisomerase I (protein)
chain: T1 sequence (P11387 1-765)
With B1 the “cleavage complex formation (top1-DNA-9AC cleavage assay)” value (T1BP2) was “T1BP2 increased cleavage complex formation approximately 50%”.

RNQGPVKMVFPIAPS (also called CPP5) [T1BP4]: binds (human topoisomerase I [4]).

LAVRRYALGNGYDWS [CPP1]: binds (human topoisomerase I [5]).

B2: T1BP2 (peptide)
peptide: SAYAATVRGPLSSAS
notes: Coupled to a CM5 chip for SPR; also called T1PB2; CPP3
With B2 the Ka (human topoisomerase I [6]) was 1.5e+06 M⁻¹, the “kd (s-1) (observed) at [Top1] 0.4 nM” value (human topoisomerase I [6]) was 0.0028 s⁻¹ and the “kd (s-1) (observed) at [Top1] 1.0 nM” value (human topoisomerase I [6]) was 0.0028 s⁻¹. For the same molecule, the “kd (s-1) (observed) at [Top1] 2.0 nM” value (human topoisomerase I [6]) was 0.00281 s⁻¹, the “kd (s-1) (observed) at [Top1] 4.0 nM” value (human topoisomerase I [6]) was 0.00282 s⁻¹ and the “kd (s-1) (observed) at [Top1] 8.0 nM” value (human topoisomerase I [6]) was 0.00283 s⁻¹. For the same molecule, the koff (human topoisomerase I [6]) was 0.0028 s⁻¹, the kon (human topoisomerase I [6]) was 4210 M⁻¹ s⁻¹ and the Kd (human topoisomerase I [7]) was 665 nM.

In the case of SSQVVGVPQLMQSSP (also called CPP2) [T1BP1], the “EC50 (read off the curve)” value (human topoisomerase I [8]) is reported as about 100 nM.

B3: T1BP5 (peptide)
peptide: EGQFTFPRGASE
notes: 12-mer, truncated due to a stop codon; also called CPP6; EGQFTFPRGASE
B3: binds (human topoisomerase I [4]).

DRVPLVHVIFNSFGY (also called CPP4) [T1BP3]: binds (human topoisomerase I [9]).
